Assay [1] addresses IFN alpha receptor (IFNAR) (UniProt P17181). In words: cell-based or functional assay.
Assay [2] deals with IFN-alpha receptor 1 (IFNAR1) (UniProt P17181). Kind of assay: SPR (Biacore X100); rhIFNAR2 immobilised on CM5 chip; 6.25-100 nM IFN fusion mixed with 100 nM IFNAR1 injected (ternary complex). In general terms: In SPR one partner is held on a chip, and binding of the other changes the refractive index at the surface.

In general, Kd refers to the equilibrium constant for the complex coming apart. In assay [1], “interferon alpha Fc fusion protein (IFNα-Fc)” gave an IC50 (nM), antiviral activity (cytopathic effect inhibition, A549 cells, EMCV) of 0.0313 nM. Further, the Kd in assay [2] amounted to 18 nM.

As for “natural fibroblast derived human IFNβ-1a (Rebif®) (from UniProt P01574 22-187) (ligand)”, in assay [1], the inhibition of osteopontin (OPN) production in stimulated human PBMC at 1.5 ng/mL stood at 88.4% and the inhibition of osteopontin (OPN) production in stimulated human PBMC at 10 ng/mL was determined as 81.3%.

The record behind these values is patent US20240132572A1.
